For 9 sequences, phosphorylation enrichment and SH2 binding enrichment results are on record in the supplement of paper PMC10065799, “High-throughput profiling of sequence recognition by tyrosine kinases and SH2 domains using bacterial peptide display” (eLife, 2023).

The subject of data set [1] is AncSZ. As to the kind of experiment: phosphorylation enrichment, bacterial display (enrichment ratio); higher = better substrate or ligand; peptides without Tyr show the background.
Data set [2] deals with EPHB1 (UniProt P54762). The data set is described as above.
The target in data set [3] is EPHB2 (UniProt P29323). The description is as above.
EPHB2, sequence (P29323 whole entry, looked up): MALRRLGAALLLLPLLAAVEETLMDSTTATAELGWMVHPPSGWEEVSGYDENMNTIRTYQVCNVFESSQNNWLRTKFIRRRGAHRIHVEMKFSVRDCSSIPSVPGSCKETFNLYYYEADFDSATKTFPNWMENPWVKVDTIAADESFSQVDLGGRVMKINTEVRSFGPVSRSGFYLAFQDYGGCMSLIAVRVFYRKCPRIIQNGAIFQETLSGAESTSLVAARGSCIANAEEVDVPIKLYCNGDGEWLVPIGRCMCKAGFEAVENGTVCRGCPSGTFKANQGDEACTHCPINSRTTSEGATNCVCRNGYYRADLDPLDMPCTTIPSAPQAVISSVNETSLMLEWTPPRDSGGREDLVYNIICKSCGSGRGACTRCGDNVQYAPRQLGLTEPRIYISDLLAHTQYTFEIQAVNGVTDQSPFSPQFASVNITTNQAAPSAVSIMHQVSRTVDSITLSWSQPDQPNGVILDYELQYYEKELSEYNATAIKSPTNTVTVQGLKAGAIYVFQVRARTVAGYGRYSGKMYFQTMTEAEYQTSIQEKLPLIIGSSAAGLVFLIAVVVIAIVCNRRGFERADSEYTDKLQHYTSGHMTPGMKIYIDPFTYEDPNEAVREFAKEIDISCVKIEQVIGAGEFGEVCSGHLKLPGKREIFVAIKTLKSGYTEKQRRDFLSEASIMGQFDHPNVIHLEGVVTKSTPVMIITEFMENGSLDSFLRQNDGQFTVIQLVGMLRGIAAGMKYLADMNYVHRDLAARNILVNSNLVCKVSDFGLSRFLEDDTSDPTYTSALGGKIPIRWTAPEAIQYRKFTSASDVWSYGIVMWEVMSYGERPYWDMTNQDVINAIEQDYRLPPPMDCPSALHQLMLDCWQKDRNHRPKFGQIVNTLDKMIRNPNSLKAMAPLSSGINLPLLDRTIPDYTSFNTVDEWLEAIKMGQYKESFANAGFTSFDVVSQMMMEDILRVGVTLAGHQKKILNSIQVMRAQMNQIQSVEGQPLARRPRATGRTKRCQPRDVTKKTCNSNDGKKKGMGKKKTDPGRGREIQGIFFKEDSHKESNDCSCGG
In data set [4] the target is FGFR1 (UniProt P11362). The data set is described as above.
FGFR1, sequence (P11362 whole entry, looked up): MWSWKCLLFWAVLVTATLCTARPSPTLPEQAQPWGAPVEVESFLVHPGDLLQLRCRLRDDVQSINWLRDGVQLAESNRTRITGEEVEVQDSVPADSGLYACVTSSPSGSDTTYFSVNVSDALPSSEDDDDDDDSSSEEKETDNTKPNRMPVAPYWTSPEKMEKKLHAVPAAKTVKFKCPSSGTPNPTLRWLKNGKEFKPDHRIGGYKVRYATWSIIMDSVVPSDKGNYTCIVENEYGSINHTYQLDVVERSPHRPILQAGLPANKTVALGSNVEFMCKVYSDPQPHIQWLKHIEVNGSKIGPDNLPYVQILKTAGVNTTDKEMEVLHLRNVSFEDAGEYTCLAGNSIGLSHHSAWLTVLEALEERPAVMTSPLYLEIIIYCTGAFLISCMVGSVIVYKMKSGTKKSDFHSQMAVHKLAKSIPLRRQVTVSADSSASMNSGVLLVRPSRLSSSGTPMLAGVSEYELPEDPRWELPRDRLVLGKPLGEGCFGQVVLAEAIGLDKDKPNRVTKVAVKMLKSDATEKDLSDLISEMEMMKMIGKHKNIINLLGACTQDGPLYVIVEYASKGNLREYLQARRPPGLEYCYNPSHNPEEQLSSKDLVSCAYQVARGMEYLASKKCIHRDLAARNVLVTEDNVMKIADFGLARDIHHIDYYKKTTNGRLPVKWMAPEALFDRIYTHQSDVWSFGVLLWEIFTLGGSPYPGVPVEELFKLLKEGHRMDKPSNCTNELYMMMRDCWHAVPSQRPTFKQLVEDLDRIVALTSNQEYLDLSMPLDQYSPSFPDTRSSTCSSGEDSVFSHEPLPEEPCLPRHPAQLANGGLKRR
The target of data set [5] is FGFR3 (UniProt P22607). Described as above.
Data set [6] deals with Fer (mouse). Described as above.
In data set [7] the target is Fes (UniProt P07332). Described as above.
Fes, sequence (P07332 whole entry, looked up): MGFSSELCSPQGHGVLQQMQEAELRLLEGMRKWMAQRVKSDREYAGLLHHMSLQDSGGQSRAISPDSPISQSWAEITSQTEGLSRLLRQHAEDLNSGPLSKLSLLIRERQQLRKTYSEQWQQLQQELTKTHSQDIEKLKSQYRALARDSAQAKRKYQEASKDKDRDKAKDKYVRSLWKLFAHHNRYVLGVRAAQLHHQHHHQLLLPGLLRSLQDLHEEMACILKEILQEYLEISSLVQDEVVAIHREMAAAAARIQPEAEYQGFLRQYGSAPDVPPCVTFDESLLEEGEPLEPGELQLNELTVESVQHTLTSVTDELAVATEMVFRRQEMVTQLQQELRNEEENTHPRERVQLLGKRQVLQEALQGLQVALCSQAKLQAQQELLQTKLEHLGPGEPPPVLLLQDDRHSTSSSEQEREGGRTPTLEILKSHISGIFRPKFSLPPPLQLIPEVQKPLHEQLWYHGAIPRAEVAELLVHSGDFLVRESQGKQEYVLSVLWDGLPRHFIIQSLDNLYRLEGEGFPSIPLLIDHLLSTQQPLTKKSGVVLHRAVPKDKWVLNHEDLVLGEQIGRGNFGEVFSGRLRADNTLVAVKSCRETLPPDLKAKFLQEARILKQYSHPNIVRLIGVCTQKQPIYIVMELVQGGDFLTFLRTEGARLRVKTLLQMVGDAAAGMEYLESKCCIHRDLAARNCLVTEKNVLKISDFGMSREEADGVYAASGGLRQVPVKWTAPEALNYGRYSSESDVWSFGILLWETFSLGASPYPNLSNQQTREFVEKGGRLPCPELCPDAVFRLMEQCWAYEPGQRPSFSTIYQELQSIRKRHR
Data set [8] addresses Fyn (UniProt P06241). The data set is described as above.
The target of data set [9] is Hck (UniProt P08631). Described as above.
Hck, sequence (P08631 whole entry, looked up): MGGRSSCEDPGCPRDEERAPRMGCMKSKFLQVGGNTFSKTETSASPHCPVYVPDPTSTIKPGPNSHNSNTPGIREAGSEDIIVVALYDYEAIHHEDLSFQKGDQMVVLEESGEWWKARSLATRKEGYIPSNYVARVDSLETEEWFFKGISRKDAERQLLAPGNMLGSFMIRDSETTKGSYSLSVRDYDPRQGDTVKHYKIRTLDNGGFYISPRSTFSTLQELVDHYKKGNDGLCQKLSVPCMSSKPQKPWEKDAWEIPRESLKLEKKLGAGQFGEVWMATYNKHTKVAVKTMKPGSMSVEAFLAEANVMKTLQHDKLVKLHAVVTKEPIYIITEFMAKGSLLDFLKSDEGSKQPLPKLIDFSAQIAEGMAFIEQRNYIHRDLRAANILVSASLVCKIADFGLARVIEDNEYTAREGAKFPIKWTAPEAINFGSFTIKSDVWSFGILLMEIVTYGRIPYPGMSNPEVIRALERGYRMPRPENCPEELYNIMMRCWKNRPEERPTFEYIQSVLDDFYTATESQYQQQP
Data set [10] has as its target Jak2 (UniProt O60674). The description is as above.
The target in data set [11] is MERTK (UniProt Q12866). Described as above.
MERTK, sequence (Q12866 whole entry, looked up): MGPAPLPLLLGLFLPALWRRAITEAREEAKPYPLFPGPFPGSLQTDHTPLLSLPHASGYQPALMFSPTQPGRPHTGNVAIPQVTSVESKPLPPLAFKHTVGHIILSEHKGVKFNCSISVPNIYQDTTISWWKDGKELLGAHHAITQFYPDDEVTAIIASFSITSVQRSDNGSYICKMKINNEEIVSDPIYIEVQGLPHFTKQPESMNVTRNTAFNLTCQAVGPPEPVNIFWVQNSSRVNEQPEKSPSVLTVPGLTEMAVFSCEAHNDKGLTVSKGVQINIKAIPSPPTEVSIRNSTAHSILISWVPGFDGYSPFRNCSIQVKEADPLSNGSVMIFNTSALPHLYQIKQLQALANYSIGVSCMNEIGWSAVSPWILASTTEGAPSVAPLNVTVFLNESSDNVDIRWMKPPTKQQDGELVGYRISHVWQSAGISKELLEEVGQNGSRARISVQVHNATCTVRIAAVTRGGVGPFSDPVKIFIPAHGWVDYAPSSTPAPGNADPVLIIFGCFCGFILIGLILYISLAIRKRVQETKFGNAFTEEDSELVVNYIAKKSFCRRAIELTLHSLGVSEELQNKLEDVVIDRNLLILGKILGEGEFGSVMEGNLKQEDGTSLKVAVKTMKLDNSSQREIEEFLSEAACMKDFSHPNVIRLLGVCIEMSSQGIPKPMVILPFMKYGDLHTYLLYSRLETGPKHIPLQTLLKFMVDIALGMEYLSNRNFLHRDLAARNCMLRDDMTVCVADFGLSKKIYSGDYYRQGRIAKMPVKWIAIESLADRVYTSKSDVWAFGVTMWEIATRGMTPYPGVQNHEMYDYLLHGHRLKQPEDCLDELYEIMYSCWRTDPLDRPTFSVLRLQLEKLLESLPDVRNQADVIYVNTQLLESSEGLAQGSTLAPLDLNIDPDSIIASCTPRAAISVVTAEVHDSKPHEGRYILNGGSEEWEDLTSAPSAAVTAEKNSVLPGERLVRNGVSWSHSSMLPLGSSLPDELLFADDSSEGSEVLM
The subject of data set [12] is c-Abl (mouse). The data set is described as above.
Data set [13] has as its system c-Src. The data set is described as above.
The target in data set [14] is Grb2 SH2 (UniProt P62993). As to the kind of experiment: SH2 binding enrichment of the phosphorylated peptide, bacterial display (enrichment ratio); higher = better substrate or ligand; peptides without Tyr show the background.
Grb2 SH2, sequence (P62993 whole entry, looked up): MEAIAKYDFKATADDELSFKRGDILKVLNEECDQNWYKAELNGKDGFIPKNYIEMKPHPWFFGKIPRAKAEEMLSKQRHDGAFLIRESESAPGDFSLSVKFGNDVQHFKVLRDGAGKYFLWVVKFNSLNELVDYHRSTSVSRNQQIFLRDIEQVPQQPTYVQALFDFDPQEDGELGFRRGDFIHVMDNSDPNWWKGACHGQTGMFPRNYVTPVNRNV
Data set [15] concerns the target SHP2-C SH2. The description is as above.
For data set [16], the target named is c-Src SH2. The description is as above.
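For SH2 binding enrichment of the phosphorylated peptide, bacterial display in this document: peptide library displayed on the E. coli surface as eCPX fusions, selected cells deep-sequenced, score is each peptide's frequency after selection divided by its frequency in the input.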
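For phosphorylation enrichment, bacterial display in this document: 11-residue human phosphosite peptides and single-mutation variants displayed on the E. coli surface, counted by deep sequencing, each peptide's frequency after selection divided by its frequency in the unselected input library; frequency after pTyr selection over input frequency; kinase dosed for 20-30% of maximal phosphorylation in three min.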

Fyn, sequence (P06241 whole entry, looked up): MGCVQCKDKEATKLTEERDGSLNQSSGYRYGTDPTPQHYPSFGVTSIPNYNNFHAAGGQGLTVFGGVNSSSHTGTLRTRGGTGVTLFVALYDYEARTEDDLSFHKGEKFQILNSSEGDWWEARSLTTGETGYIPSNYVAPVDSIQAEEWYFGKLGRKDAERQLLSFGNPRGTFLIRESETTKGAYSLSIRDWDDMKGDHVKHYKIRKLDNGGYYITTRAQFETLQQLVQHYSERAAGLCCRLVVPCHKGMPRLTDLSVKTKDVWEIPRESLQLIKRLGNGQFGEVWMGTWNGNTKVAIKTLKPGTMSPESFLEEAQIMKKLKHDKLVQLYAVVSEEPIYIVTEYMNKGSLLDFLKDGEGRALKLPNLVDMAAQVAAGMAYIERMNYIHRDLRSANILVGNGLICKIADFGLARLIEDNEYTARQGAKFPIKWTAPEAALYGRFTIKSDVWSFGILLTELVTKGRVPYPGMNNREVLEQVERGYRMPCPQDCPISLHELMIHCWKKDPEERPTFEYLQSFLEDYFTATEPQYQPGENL

For YETSHYLASPD [CTNND2_Y1217_P1218L], the phosphorylation enrichment in data set [1] is 1.09; in data set [2] it was 0.59; in data set [3] it was 0.767; in [4], 0.649; in [5] it was 0.633; in data set [6], 0.685. Besides, the phosphorylation enrichment in data set [7] is 0.961; in data set [8], 0.523; in data set [9], 0.554; in data set [10], 0.809; in [11] it was 0.784; in data set [12], 0.821. The phosphorylation enrichment in data set [13] was 0.529. In addition, the SH2 binding enrichment in [14] turned out to be 1.11; in data set [15] it was 0.675; in data set [16] it was 1.1.
As to YGMQLYQKYMH [GRB14_Y347_N349K], the phosphorylation enrichment in data set [1] amounted to 0.844; in data set [2] it was 1.15; in data set [3] it was 2.42; in [4], 0.572; in [5], 0.581; in [6], 2.09. Further, the phosphorylation enrichment in data set [7] turned out to be 0.694; in data set [8], 1.31; in data set [9], 2.08; in data set [10] it was 0.561; in data set [11], 1.92; in data set [12] it was 0.648. Besides, in data set [13], the phosphorylation enrichment turned out to be 2.29. In addition, the SH2 binding enrichment in data set [14] was determined as 0.824; in data set [15], 0.64; in data set [16] it was 0.548.
For YKEDPYLVVNP [MCM6_Y810_E806K], the phosphorylation enrichment came out at 1.19 in data set [1]; 0.405 in data set [2]; 0.515 in data set [3]; 1.24 in data set [4]; 1.09 in data set [5]; 0.46 in [6]. Besides, the phosphorylation enrichment in [7] came out at 1.11; in [8], 1.04; in data set [9], 0.591; in data set [10] it was 1.03; in data set [11], 0.455; in [12], 0.662. For the same sequence, the phosphorylation enrichment in [13] worked out at 1.74. The results for the SH2 binding enrichment in data set [14], in [15] and in data set [16] were 0.829, 0.538 and 0.58, respectively.
On to YLEEEYVKAVG [TF_Y674_G671E], for which the phosphorylation enrichment in data set [1] was determined as 1.36; in [2], 0.629; in data set [3], 0.63; in data set [4], 0.606; in data set [5], 0.893; in [6], 0.615. Further, the phosphorylation enrichment in [7] turned out to be 1.32; in data set [8], 0.491; in data set [9], 0.575; in data set [10], 1.18; in [11], 0.454; in data set [12], 1.01. For the same sequence, the phosphorylation enrichment in data set [13] is 0.505. Also, the SH2 binding enrichment in [14] came to 0.75; in [15], 0.685; in data set [16] it was 0.323.
On to YQLENCCNGGG [INS_Y108_Y108C], for which the phosphorylation enrichment in data set [1] was determined as 0.829; in data set [2], 1.05; in [3] it was 0.522; in data set [4], 0.547; in [5], 0.621; in data set [6], 0.535. For the same sequence, the phosphorylation enrichment in data set [7] was found to be 0.903; in [8], 0.689; in [9] it was 0.563; in [10] it was 0.763; in data set [11] it was 0.601; in data set [12] it was 0.556. For the same sequence, the phosphorylation enrichment in data set [13] amounted to 0.59. Moreover, the figures for the SH2 binding enrichment in [14], in data set [15] and in data set [16] were 0.747, 0.666 and 0.972, respectively.
Turning to YQQLFYLLQIN [IQGAP2_Y890_T894I], the phosphorylation enrichment turned out to be 1.57 in [1]; 1.21 in data set [2]; 0.829 in [3]; 2.23 in data set [4]; 2.15 in [5]; 0.751 in data set [6]. Besides, the phosphorylation enrichment in data set [7] turned out to be 1.81; in [8], 0.625; in [9], 0.911; in [10], 1.67; in data set [11], 1.31; in data set [12], 1.3. Besides, the phosphorylation enrichment in data set [13] is 1. Besides, the results for the SH2 binding enrichment in [14], in data set [15] and in data set [16] were 1.31, 1.28 and 0.91, respectively.
As to YRDALYKFIVD [PHEX_Y250_M253I], the phosphorylation enrichment in data set [1] came out at 1.08; in data set [2], 1.97; in data set [3], 1.02; in data set [4] it was 0.952; in data set [5], 1.38; in data set [6] it was 0.759. Further, the phosphorylation enrichment in [7] is 1.25; in data set [8], 0.623; in [9], 0.706; in data set [10] it was 1; in [11], 1.65; in [12], 0.916. Moreover, the phosphorylation enrichment in data set [13] stood at 0.638. Moreover, the SH2 binding enrichment in data set [14] worked out at 0.774; in data set [15], 0.774; in [16], 0.683.
Turning to YRVAGYETQGG [TIA1_Y383], the phosphorylation enrichment in [1] amounted to 0.436; in data set [2], 0.329; in data set [3], 0.338; in data set [4] it was 0.399; in data set [5], 0.352; in data set [6], 0.351. In addition, the phosphorylation enrichment in data set [7] was 0.646; in [8], 0.378; in data set [9], 0.37; in data set [10], 0.392; in [11], 0.324; in [12] it was 0.906. Further, the phosphorylation enrichment in data set [13] was found to be 0.295. Also, the SH2 binding enrichment in data set [14] amounted to 0.608; in data set [15], 0.58; in data set [16] it was 0.391.
With YSKTQYNQVPR [CXADR_Y318_S323R], the phosphorylation enrichment in data set [1] turned out to be 0.531; in [2] it was 0.315; in data set [3] it was 0.431; in [4] it was 0.421; in [5], 0.532; in [6] it was 0.471. The phosphorylation enrichment in data set [7] was 0.542; in [8], 0.319; in [9], 0.487; in data set [10] it was 0.451; in data set [11] it was 0.514; in [12], 0.465. Besides, the phosphorylation enrichment in data set [13] amounted to 0.462. Besides, the results for the SH2 binding enrichment in data set [14], in [15] and in [16] were 0.974, 0.533 and 0.589, respectively.
